Assay results as given in patent publication US7291492.

Columns and labels:
[1] = target: [3H]acetyl-labelled peptide corresponding to the N-Terminus of Histone H3, P68431
[2] = target: [3H]acetyl-labelled peptide corresponding to the N-Terminus of histone H4, P62805

B1: N-Terminus flag tagged HDAC9 (protein)
chain: MHSMISSVDVKSEVPVGLEPISPLDLRTDLRMMMPVVDPVVREKQLQQELLLIQQQQQIQKQLLIAEFQKQHENLTRQHQAQLQEHIKLQQELLAIKQQQELLEKEQKLEQQRQEQEVERHRREQQLPPLRGKDRGRERAVASTEVKQKLQEFLLSKSATKDTPTNGKNHSVSRHPKLWYTAAHHTSLDQSSPPLSGTSPSYKYTLPGAQDAKDDFPLRKTASEPNLKVRSRLKQKVAERRSSPLLRRKDGNVVTSFKKRMFEVTESSVSSSSPGSGPSSPNNGPTGSVTENETSVLPPTPHAEQMVSQQRILIHEDSMNLLSLYTSPSLPNITLGLPAVPSQLNASNSLKEKQKCETQTLRQGVPLPGQYGGSIPASSSHPHVTLEGKPPNSSHQALLQHLLLKEQMRQQKLLVAGGVPLHPQSPLATKERISPGIRGTHKLPRHRPLNRTQSAPLPQSTLAQLVIQQQHQQFLEKQKQYQQQIHMNKLLSKSIEQLKQPGSHLEEAEEELQGDQAMQEDRAPSSGNSTRSDSSACVDDTLGQVGAVKVKEEPVDSDEDAQIQEMESGEQAAFMQQPFLEPTHTRALSVRQAPLAAVGMDGLEKHRLVSRTHSSPAASVLPHPAMDRPLQPGSATGIAYDPLMLKHQCVCGNSTTHPEHAGRIQSIWSRLQETGLLNKCERIQGRKASLEEIQLVHSEHHSLLYGTNPLDGQKLDPRILLGDDSQKFFSSLPCGGLGVDSDTIWNELRSSGAARMAVGCVIELASKVASGELKNGFAVVRPPGHHAEESTAMGFCFFNSVAITAKYLRDQLNISKILIVDLDVHHGNGTQQAFYADPSILYISLHRYDEGNFFPGSGAPNEVGTGLGEGYNINIAWTGGLDPPMGDVEYLEAFRTIVKPVAKEFDPDMVLVSAGFDALEGHTPPLGGYKVTAKCFGHLTKQLMTLADGRVVLALEGGHDLTAICDASEACVNALLGNELEPLAEDILHQSPNMNAVISLQKIIEIQSKYWKSVRMVAVPRGCALAGAQLQEETETVSALASLTVDVEQPFAQEDSRTAGEPMEEEPAL
Which “histone deacetylase activity (release of [3H]acetate from the peptide)” value [1] does the source give for B1 here?
The value was “Higher activities of HDAC9 have been detected towards peptide substrates derived from histone H3 than from histone H4”.

What about the “histone deacetylase activity (release of [3H]acetate from the peptide), relative to HDAC1” value [2] of the same protein?
Its value is “HDAC9 contains about 25% activity of HDAC1”.

What about the “histone deacetylase activity (release of [3H]acetate from the peptide), relative to HDACs 4 and 5” value [2] of the same protein?
The value was 50% activity of HDACs 4 and 5.
